Patent publication US8114968 (DYAX, dated 2012)
Numbering of substitutions follows the chain as printed.

B1: 539B-M131A06 (antibody, V domains shown)
VH: EVQLLESGGGLVQPGGSLRLSCAASGFTFSWYWMHWVRQAPGKGLEWVSGISPSGGMTMYADSVKGRFTISRDNSKNTLYLQMNSLRAEDTAVYYCARDIVGPYSAGLFDYWGRGTLVTVSS
VL: DIQMTQSPSSLSASVGDRVTITCRANQSIYTYLNWYQQKPGKAPELLIYAASSLQSGVPSRFSGSGSGTDFTLTISSLQPEDFATYYCQQAGIFGQGTKLEIK
notes: N-glycosylation site in LC CDR1; also called M0131-A06
B2: 539B-M0008-H09 (format not stated) (antibody, V domains shown)
VH: B1 VH with W31D, W33N, G50Y, S52G, M57Y, M59H, R98K, V101R, P103A, A106S
VL: B1 VL
notes: Same clone as m49 and m54; also called M08H09

How the values were obtained:
human MMP-12 [1] = target: T1, human MMP-12 (human, UniProt P39900 106-470, limits assumed); assay: inhibition assay of MMP-12 activity ('IC50 or Ki')
T1 construct: also called hMMP-12; huMMP12

human MMP-12 [2] = target: T1, human MMP-12; assay: IC50 against substrate concentration, enzyme inhibition, FIG. 3
murine MMP-12 = target: T2, murine MMP-12 (mouse, UniProt P34960 110-473, limits assumed); assay: as above
T2 construct: also called mouse MMP12; mMMP12
T2 sequence (P34960 110-473 limits assumed): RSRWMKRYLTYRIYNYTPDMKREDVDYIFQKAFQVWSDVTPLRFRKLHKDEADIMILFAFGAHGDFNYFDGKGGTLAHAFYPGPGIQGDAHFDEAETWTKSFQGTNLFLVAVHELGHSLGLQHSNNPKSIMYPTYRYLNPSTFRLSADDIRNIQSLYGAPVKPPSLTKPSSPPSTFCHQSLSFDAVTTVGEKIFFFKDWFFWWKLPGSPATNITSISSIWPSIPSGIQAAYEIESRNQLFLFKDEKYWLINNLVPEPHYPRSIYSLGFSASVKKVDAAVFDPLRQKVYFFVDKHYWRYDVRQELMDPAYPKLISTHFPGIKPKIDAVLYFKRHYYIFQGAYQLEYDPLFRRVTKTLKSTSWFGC

T1 sequence (P39900 106-470 limits assumed): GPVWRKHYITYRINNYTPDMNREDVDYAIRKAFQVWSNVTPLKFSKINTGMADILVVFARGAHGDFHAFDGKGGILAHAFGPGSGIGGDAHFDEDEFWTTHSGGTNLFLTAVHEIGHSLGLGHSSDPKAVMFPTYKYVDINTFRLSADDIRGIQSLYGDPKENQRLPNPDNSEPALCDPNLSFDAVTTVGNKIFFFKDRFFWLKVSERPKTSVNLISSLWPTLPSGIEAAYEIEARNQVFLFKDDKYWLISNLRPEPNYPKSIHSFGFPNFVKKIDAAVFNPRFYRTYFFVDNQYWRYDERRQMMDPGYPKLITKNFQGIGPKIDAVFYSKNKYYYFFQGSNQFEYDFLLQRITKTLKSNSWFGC

| Binder | Ki (human MMP-12 [1]) | Ki (human MMP-12 [2]) | Ki (murine MMP-12) |
| --- | --- | --- | --- |
| B1 | < 0.3 nM |  |  |
| B2 |  | 2.8 nM | 2.2 nM |
